The results in this text go back to the MegaScale stability set (Tsuboyama et al. 2023).

Sequences and labels used below:
B1: HEEH_KT_rd6_3546 (parent)
chain: SEEDKEREHWERLNRDFELRVLDTTFIAHHAEEVIKLLRWLEK

This series covers variants of B1. The series can be described thus: folding stability dG (cDNA display proteolysis); higher = more stable. The following applies: PBS, room temperature.
Consider SEEDKEREHWERLNRDFELRVLDTTFIAHRAEEVIKLLRWLEK [H30R], for which the “folding stability dG” value was 1.07 kcal/mol. On to SEEDKEREHWERLNRDFELRVLDTTFIAHCAEEVIKLLRWLEK [H30C], for which the “folding stability dG” value amounted to 1.6 kcal/mol.

As for SEEDKEREHWERLNRDFELRVLDTTFIAHHAEMVIKLLRWLEK [E33M], the “folding stability dG” value was 2.06 kcal/mol.

For the variant SEEDKEREHWERLNRDFELRVLDTTFIAHHAEYVIKLLRWLEK [E33Y], the “folding stability dG” value stood at 2.16 kcal/mol. For SEEDKEREHWERLNRDFELRVLDTTFIAHHAEPVIKLLRWLEK [E33P], the “folding stability dG” value is 0.926 kcal/mol.

Regarding SEEDKEREHWERLNRDFELRVLDTTFIAHHAESVIKLLRWLEK [E33S], the “folding stability dG” value was 1.44 kcal/mol.

For SEEDKEREHWERLNRDFELRVLDTTFIAHHAEKVIKLLRWLEK [E33K], the “folding stability dG” value was determined as 1.62 kcal/mol.

In the case of SEEDKEREHWERLNRDFELRVLDTTFIAHHAECVIKLLRWLEK [E33C], the “folding stability dG” value was determined as 2.69 kcal/mol. The result for SEEDKEREHWERLNRDFELRVLDTTFIAHHAERVIKLLRWLEK [E33R] reads 1.46 kcal/mol. On to SEEDKEREHWERLNRDFELRVLDTTFIAHHAEHVIKLLRWLEK [E33H], for which the “folding stability dG” value is 1.41 kcal/mol. On to SEEDKEREHWERLNRDFELRVLDTTFIAHHAEVVIKLLRWLEK [E33V], for which the “folding stability dG” value was 2.06 kcal/mol. For SEEDKEREHWERLNRDFELRVLDTTFIAHHAEDVIKLLRWLEK [E33D], the “folding stability dG” value is 1.34 kcal/mol.

In the case of SEEDKEREHWERLNRDFELRVLDTTFIAHHAEGVIKLLRWLEK [E33G], the “folding stability dG” value turned out to be 1.47 kcal/mol. For the variant SEEDKEREHWERLNRDFELRVLDTTFIAHHAEIVIKLLRWLEK [E33I], the “folding stability dG” value stood at 2.31 kcal/mol.

As for SEEDKEREHWERLNRDFELRVLDTTFIAHHAELVIKLLRWLEK [E33L], the “folding stability dG” value worked out at 2.05 kcal/mol. Consider SEEDKEREHWERLNRDFELRVLDTTFIAHHAEQVIKLLRWLEK [E33Q], for which the “folding stability dG” value amounted to 1.46 kcal/mol.

SEEDKEREHWERLNRDFELRVLDTTFIAHHAEWVIKLLRWLEK [E33W]: the “folding stability dG” value worked out at 2.45 kcal/mol. As to SEEDKEREHWERLNRDFELRVLDTTFIAHHAEAVIKLLRWLEK [E33A], the “folding stability dG” value stood at 1.74 kcal/mol. As to SEEDKEREHWERLNRDFELRVLDTTFIAHHAETVIKLLRWLEK [E33T], the “folding stability dG” value amounted to 1.47 kcal/mol. Take SEEDKEREHWERLNRDFELRVLDTTFIAHHAENVIKLLRWLEK [E33N]: the “folding stability dG” value is 1.45 kcal/mol. In the case of SEEDKEREHWERLNRDFELRVLDTTFIAHHAEFVIKLLRWLEK [E33F], the “folding stability dG” value is 2.31 kcal/mol. For the variant SEEDKEREHWERLNRDFELRVLDTTFIAHHFEEVIKLLRWLEK [A31F], the “folding stability dG” value came to 1.96 kcal/mol. In the case of SEEDKEREHWERLNRDFELRVLDTTFIAHHDEEVIKLLRWLEK [A31D], the “folding stability dG” value was 0.6 kcal/mol.

As for SEEDKEREHWERLNRDFELRVLDTTFIAHHKEEVIKLLRWLEK [A31K], the “folding stability dG” value came to 1.09 kcal/mol.

SEEDKEREHWERLNRDFELRVLDTTFIAHHNEEVIKLLRWLEK [A31N]: the “folding stability dG” value turned out to be 0.698 kcal/mol. Consider SEEDKEREHWERLNRDFELRVLDTTFIAHHCEEVIKLLRWLEK [A31C], for which the “folding stability dG” value came out at 2.24 kcal/mol. Regarding SEEDKEREHWERLNRDFELRVLDTTFIAHHMEEVIKLLRWLEK [A31M], the “folding stability dG” value was found to be 1.79 kcal/mol. For SEEDKEREHWERLNRDFELRVLDTTFIAHHWEEVIKLLRWLEK [A31W] the value was 2.28 kcal/mol; for SEEDKEREHWERLNRDFELRVLDTTFIAHHQEEVIKLLRWLEK [A31Q], 0.833 kcal/mol; for SEEDKEREHWERLNRDFELRVLDTTFIAHHIEEVIKLLRWLEK [A31I], 2.19 kcal/mol. For SEEDKEREHWERLNRDFELRVLDTTFIAHHEEEVIKLLRWLEK [A31E] the value was 0.663 kcal/mol; for SEEDKEREHWERLNRDFELRVLDTTFIAHHVEEVIKLLRWLEK [A31V], 2.1 kcal/mol. For SEEDKEREHWERLNRDFELRVLDTTFIAHHTEEVIKLLRWLEK [A31T], the “folding stability dG” value is 1.33 kcal/mol. For SEEDKEREHWERLNRDFELRVLDTTFIAHHREEVIKLLRWLEK [A31R] the value was 1.07 kcal/mol; for SEEDKEREHWERLNRDFELRVLDTTFIAHHPEEVIKLLRWLEK [A31P], 0.618 kcal/mol; for SEEDKEREHWERLNRDFELRVLDTTFIAHHHEEVIKLLRWLEK [A31H], 0.66 kcal/mol. On to SEEDKEREHWERLNRDFELRVLDTTFIAHHLEEVIKLLRWLEK [A31L], for which the “folding stability dG” value was 1.94 kcal/mol.

Regarding SEEDKEREHWERLNRDFELRVLDTTFIAHHYEEVIKLLRWLEK [A31Y], the “folding stability dG” value stood at 1.61 kcal/mol. Turning to SEEDKEREHWERLNRDFELRVLDTTFIAHHSEEVIKLLRWLEK [A31S], the “folding stability dG” value is 0.872 kcal/mol. The result for SEEDKEREHWERLNRDFELRVLDTTFIAHHGEEVIKLLRWLEK [A31G] reads 0.934 kcal/mol; that for SEEDKEREHWERLNRDFELRVLDTTFIAHHADEVIKLLRWLEK [E32D], 1.23 kcal/mol; that for SEEDKEREHWERLNRDFELRVLDTTFIAHHAWEVIKLLRWLEK [E32W], 2.1 kcal/mol. As to SEEDKEREHWERLNRDFELRVLDTTFIAHHAQEVIKLLRWLEK [E32Q], the “folding stability dG” value stood at 1.29 kcal/mol. For SEEDKEREHWERLNRDFELRVLDTTFIAHHATEVIKLLRWLEK [E32T], the “folding stability dG” value was found to be 1.43 kcal/mol. On to SEEDKEREHWERLNRDFELRVLDTTFIAHHAIEVIKLLRWLEK [E32I], for which the “folding stability dG” value came to 1.73 kcal/mol. Turning to SEEDKEREHWERLNRDFELRVLDTTFIAHHAVEVIKLLRWLEK [E32V], the “folding stability dG” value was 1.79 kcal/mol. Take SEEDKEREHWERLNRDFELRVLDTTFIAHHACEVIKLLRWLEK [E32C]: the “folding stability dG” value was determined as 1.31 kcal/mol. For the variant SEEDKEREHWERLNRDFELRVLDTTFIAHHAGEVIKLLRWLEK [E32G], the “folding stability dG” value came out at 1.2 kcal/mol. As to SEEDKEREHWERLNRDFELRVLDTTFIAHHAYEVIKLLRWLEK [E32Y], the “folding stability dG” value was 1.9 kcal/mol.

Consider SEEDKEREHWERLNRDFELRVLDTTFIAHHAREVIKLLRWLEK [E32R], for which the “folding stability dG” value stood at 1.37 kcal/mol. SEEDKEREHWERLNRDFELRVLDTTFIAHHAKEVIKLLRWLEK [E32K]: the “folding stability dG” value was determined as 1.54 kcal/mol. For the variant SEEDKEREHWERLNRDFELRVLDTTFIAHHAAEVIKLLRWLEK [E32A], the “folding stability dG” value was found to be 1.93 kcal/mol. Take SEEDKEREHWERLNRDFELRVLDTTFIAHHAHEVIKLLRWLEK [E32H]: the “folding stability dG” value was 1.42 kcal/mol.

SEEDKEREHWERLNRDFELRVLDTTFIAHHASEVIKLLRWLEK [E32S]: the “folding stability dG” value came to 1.42 kcal/mol. For the variant SEEDKEREHWERLNRDFELRVLDTTFIAHHAFEVIKLLRWLEK [E32F], the “folding stability dG” value stood at 2.21 kcal/mol. As for SEEDKEREHWERLNRDFELRVLDTTFIAHHALEVIKLLRWLEK [E32L], the “folding stability dG” value came to 1.92 kcal/mol. Consider SEEDKEREHWERLNRDFELRVLDTTFIAHHAPEVIKLLRWLEK [E32P], for which the “folding stability dG” value is 1.25 kcal/mol. For the variant SEEDKEREHWERLNRDFELRVLDTTFIAHHANEVIKLLRWLEK [E32N], the “folding stability dG” value was 1.26 kcal/mol. As to SEEDKEREHWERLNRDFELRVLDTTFIAHHAMEVIKLLRWLEK [E32M], the “folding stability dG” value was 1.72 kcal/mol.
